Where a SMILES comes first, the peptide text is derived from it. [ ]: non-standard residue; d: D form.

Assay [1] addresses T1, PKC-ε (Homo sapiens, UniProt Q02156).
T1 sequence (Q02156 1-737): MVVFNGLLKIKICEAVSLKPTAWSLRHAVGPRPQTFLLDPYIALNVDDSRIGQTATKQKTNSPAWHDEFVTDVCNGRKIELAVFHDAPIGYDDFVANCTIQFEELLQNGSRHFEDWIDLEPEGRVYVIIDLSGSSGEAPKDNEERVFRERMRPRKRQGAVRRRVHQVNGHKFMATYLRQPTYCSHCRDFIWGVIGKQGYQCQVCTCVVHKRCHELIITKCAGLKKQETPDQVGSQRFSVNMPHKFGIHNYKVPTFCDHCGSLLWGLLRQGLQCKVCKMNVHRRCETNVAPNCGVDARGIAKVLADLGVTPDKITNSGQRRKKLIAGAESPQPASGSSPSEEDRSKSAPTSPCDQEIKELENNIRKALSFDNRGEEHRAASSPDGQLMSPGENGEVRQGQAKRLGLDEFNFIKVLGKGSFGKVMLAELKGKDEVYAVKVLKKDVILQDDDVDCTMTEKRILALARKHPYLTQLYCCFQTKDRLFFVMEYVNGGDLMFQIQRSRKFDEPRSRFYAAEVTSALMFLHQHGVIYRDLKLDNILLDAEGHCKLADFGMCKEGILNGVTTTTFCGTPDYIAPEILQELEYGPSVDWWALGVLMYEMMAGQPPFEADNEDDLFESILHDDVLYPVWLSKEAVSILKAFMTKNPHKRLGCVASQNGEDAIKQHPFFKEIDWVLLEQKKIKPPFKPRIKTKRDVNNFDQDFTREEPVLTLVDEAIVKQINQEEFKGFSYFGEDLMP
Briefly: Competitive binding assay using cell extracts (Western blot). Also on record: cytoplasmic extracts from different cell lines expressing appropriate PKC isoforms; endogenous in cells; host or cells: CCD16Lu, LnCAP, Du145, MDAMB231, LS180; key: —: no detectable affinity; Low to very low affinity at 10X or 20X or both PRE concentrations in at least one cell line in the cell extract assay; Low affinity in purified isoform assay.; Moderate affinity at 10X or 20X or both PRE concentrations in at least one cell line in the cell extract assay.; High affinity at 10X or 20X or both PRE concentrations in at least one cell line in the cell extract assay; High affinity in purified isoform assay. The settings on record: Cell extract; PRE 10X or 20X antibody concentration. On the procedure: (§1) Binding efficiency and specificity of the peptides PRE 2, 3, 4, 5, 6, 7, 8, 9, 10, 11, 12 and 13 (see Table 4) was also tested using cytoplasmic extracts from different cell lines expressing appropriate PKC isoforms as described for Example 1. Briefly, the protein cytoplasmic extracts were separated by electrophoresis and transferred onto nitrocellulose membranes by standard Western blotting procedures. The bands on the Western blots were detected with matching primary antibodies and alkaline phosphatase conjugated secondary antibody. The bands were then scanned and the relative density measurements obtained.
(§2) This procedure to assess the binding characteristics of the PREs is based on competition binding of the PRE with the primary anti-isoform PKC specific antibodies. The lower the measured band density, the greater the binding of the PRE to the PKC isoform. The PREs were added at 10 and 20 times (10×, 20×) the primary antibody concentration, according to classical competition between antigenic peptide and primary antibody. The following cell lines (obtained from the ATCC) were used: H661—NCI human lung carcinoma NSCLC; MDAMB231—human highly invasive breast cancer cell line from pleural effusion; LS180—human colon adenocarcinoma; LnCAP—human prostate adenocarcinoma; CCD16Lu—human lung fibroblasts; Du145—human prostate carcinoma brain metastasis, and T24—human bladder carcinoma.
(§3) In these cases, the 20× band density figures relative to control and 10× values were reliable.

Assay [2] concerns the target T2, PKC-ι (Homo sapiens, UniProt P41743).
T2 construct: cytoplasmic extracts from different cell lines expressing appropriate PKC isoforms; endogenous in cells; host or cells: H661, CCD16Lu, LnCAP, MDAMB231, Du145, LS180
T2 sequence (P41743 1-596): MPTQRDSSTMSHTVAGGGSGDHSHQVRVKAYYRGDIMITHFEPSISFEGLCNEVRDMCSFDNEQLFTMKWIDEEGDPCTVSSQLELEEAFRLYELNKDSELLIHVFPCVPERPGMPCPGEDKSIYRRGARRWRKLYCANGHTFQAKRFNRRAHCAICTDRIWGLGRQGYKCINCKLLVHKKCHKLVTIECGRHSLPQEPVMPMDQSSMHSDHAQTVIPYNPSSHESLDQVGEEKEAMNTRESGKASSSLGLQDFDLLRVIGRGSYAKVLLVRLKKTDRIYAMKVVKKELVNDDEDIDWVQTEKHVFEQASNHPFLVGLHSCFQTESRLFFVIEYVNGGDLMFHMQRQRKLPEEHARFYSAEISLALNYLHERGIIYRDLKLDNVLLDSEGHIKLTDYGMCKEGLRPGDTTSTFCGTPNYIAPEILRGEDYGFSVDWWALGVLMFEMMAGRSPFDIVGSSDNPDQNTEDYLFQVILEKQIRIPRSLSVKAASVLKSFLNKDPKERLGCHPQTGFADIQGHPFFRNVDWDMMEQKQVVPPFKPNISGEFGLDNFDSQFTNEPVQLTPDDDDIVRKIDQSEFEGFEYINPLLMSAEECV
Described as above. Also on record: key: —: no detectable affinity; Low to very low affinity at 10X or 20X or both PRE concentrations in at least one cell line in the cell extract assay; Low affinity in purified isoform assay.; Moderate affinity at 10X or 20X or both PRE concentrations in at least one cell line in the cell extract assay.; High affinity at 10X or 20X or both PRE concentrations in at least one cell line in the cell extract assay; High affinity in purified isoform assay. The settings on record: Cell extract; PRE 10X or 20X antibody concentration. On the procedure: as §1, §2, §3

`CC[C@H](C)[C@H](NC(=O)[C@H](CO)NC(=O)[C@@H](NC(=O)CNC(=O)[C@@H](NC(=O)[C@H](CC(C)C)NC(=O)[C@H](CC(N)=O)NC(=O)[C@H](CCC(N)=O)NC(=O)[C@H](C)NC(=O)[C@H](CC(=O)O)NC(=O)CNC(=O)CNC(=O)[C@H](CCCCN)NC(=O)[C@@H](NC(=O)[C@H](CCC(=O)O)NC(=O)[C@H](CCC(N)=O)NC(=O)[C@@H](NC(=O)CNC(=O)[C@H](CCCCN)NC(=O)[C@H](C)NC(C)=O)[C@@H](C)CC)C(C)C)[C@@H](C)CC)[C@@H](C)CC)C(N)=O` [PRE 3] (Ac-AKGIQEVKGGDAQNLIGISI-NH2): the “Affinity for PKC isoform ε” value in assay [1] was “L”. Besides, the “Affinity for PKC isoform ι” value in assay [2] is on record as “L”. With `CC[C@H](C)[C@H](NC(=O)[C@H](CO)NC(=O)[C@@H](NC(=O)CNC(=O)[C@@H](NC(=O)[C@H](CC(C)C)NC(=O)[C@H](CC(N)=O)NC(=O)[C@H](CCC(N)=O)NC(=O)[C@H](C)NC(=O)[C@H](CC(=O)O)NC(=O)[C@H](CCCCN)NC(C)=O)[C@@H](C)CC)[C@@H](C)CC)C(N)=O` [PRE 4, Ac-KDAQNLIGISI-NH2] (Ac-KDAQNLIGISI-NH2), in assay [1], the “Affinity for PKC isoform ε” value is reported as “H/L”. Moreover, the “Affinity for PKC isoform ι” value in assay [2] is “M/L”. For the compound `CC[C@H](C)[C@H](NC(=O)[C@H](CO)NC(=O)[C@@H](NC(=O)CNC(=O)[C@@H](NC(=O)[C@H](CC(C)C)NC(=O)[C@H](CC(N)=O)NC(=O)[C@H](CCC(N)=O)NC(=O)[C@H](C)NC(=O)[C@H](CC(=O)O)NC(=O)[C@H](CCCCN)NC(=O)CNC(=O)CNC(=O)[C@H](CCCCN)NC(=O)[C@@H](NC(=O)[C@H](CCC(=O)O)NC(=O)[C@H](CCC(N)=O)NC(=O)[C@@H](NC(=O)CNC(=O)[C@H](CCCCN)NC(=O)[C@H](C)NC(C)=O)[C@@H](C)CC)C(C)C)[C@@H](C)CC)[C@@H](C)CC)C(N)=O` [PRE 5] (Ac-AKGIQEVKGGKDAQNLIGISI-NH2), the “Affinity for PKC isoform ε” value in assay [1] is recorded as “L”. Same read-out and setting: for Ac-ISIGILNQADK-NH2 [PRE 10] the value was “M/L”.

As for “Ac-ISIGILQNADK-NH2 (not fully specified; printed as Ac-ISIGILQNADK-NH2) [PRE 7]”, the “Affinity for PKC isoform ε” value in assay [1] is “—”. In addition, the “Affinity for PKC isoform ι” value in assay [2] is on record as “—”. Ac-KDANQLIGISI-NH2 [PRE 6]: the “Affinity for PKC isoform ε” value in assay [1] is “M”. The “Affinity for PKC isoform ι” value in assay [2] is listed as “—”. For Ac-KDAQNLI-NH2 [PRE 12] the same measures were “—” and “—”. The matching figures for Ac-RDAQNLI-NH2 [PRE 13]: “—” and “—”. Take Ac-RDAQNLIGISI-NH2 [PRE 11]: the “Affinity for PKC isoform ε” value in assay [1] is listed as “—”. Still for that read-out and setting: for “Ac-isigilqnadk-NH2 (Ac-[dI][dS][dI]G[dI][dL][dQ][dN][dA][dD][dK]-NH2; SMILES CC[C@@H](C)[C@@H](NC(C)=O)C(=O)N[C@H](CO)C(=O)N[C@@H](C(=O)NCC(=O)N[C@@H](C(=O)N[C@H](CC(C)C)C(=O)N[C@H](CCC(N)=O)C(=O)N[C@H](CC(N)=O)C(=O)N[C@H](C)C(=O)N[C@H](CC(=O)O)C(=O)N[C@H](CCCCN)C(N)=O)[C@H](C)CC)[C@H](C)CC) [PRE 9]” the value was “M/L”.

Turning to ILEDKGGDAQNLIGISI [PRE 8], the “Affinity for PKC isoform ε” value in assay [1] was “L”. Take RRKKGGKDFVVKR [PRE 1]: the “Affinity for PKC isoform ι” value in assay [2] is “—”.

Source of the values: patent US20110039770A1, “INHIBITORS OF PROTEIN KINASE C ISOFORMS AND USES THEREOF” (PHARMAGAP INC., priority 2005, published 2011).
